Patent publication US20090048164A1
Where two headings read alike, the source gives them in different places.

What was measured:
[1] = molecular target: mouse Mcl-1 with truncations of 151 amino acid residues at its N-terminus and 23 residues at its C-terminus (mouse) (UniProt P97287); assay: competition phage ELISA
[2] = molecular target: Recombinant human Bcl-xL with a 25 amino acid truncation of its C-terminus (human) (UniProt Q07817); assay: competition phage ELISA
Bcl-2 [3] = assay: competition phage ELISA
Bcl-w [4] = assay: competition phage ELISA
[5] = molecular target: Recombinant human Bcl-xL with a 25 amino acid truncation of its C-terminus (human) (UniProt Q07817); assay: competition phage ELISA; remark: listed apart in the source
[6] = molecular target: Recombinant human Bcl-xL with a 25 amino acid truncation of its C-terminus (human) (UniProt Q07817); assay: Bim BH3 substitution scan
A1 [7] = assay: Biacore competition vs immobilised BimBH3
Bcl-2 [8] = assay: Biacore competition vs immobilised BimBH3
Bcl-w [9] = assay: Biacore competition vs immobilised BimBH3
[10] = molecular target: Recombinant human Bcl-xL with a 25 amino acid truncation of its C-terminus (human) (UniProt Q07817); assay: Biacore competition vs immobilised BimBH3
[11] = molecular target: mouse Mcl-1 with truncations of 151 amino acid residues at its N-terminus and 23 residues at its C-terminus (mouse) (UniProt P97287); assay: Biacore competition vs immobilised BimBH3
A1 [12] = assay: Biacore competition, synthetic peptides; against wild-type BimBH3 peptide
Bcl-2 [13] = assay: as above
Bcl-w [14] = assay: as above
[15] = molecular target: Recombinant human Bcl-xL with a 25 amino acid truncation of its C-terminus (human) (UniProt Q07817); assay: as above
[16] = molecular target: mouse Mcl-1 with truncations of 151 amino acid residues at its N-terminus and 23 residues at its C-terminus (mouse) (UniProt P97287); assay: as above
A1 [17] = assay: Biacore competition, synthetic peptides
[18] = molecular target: mouse Mcl-1 with truncations of 151 amino acid residues at its N-terminus and 23 residues at its C-terminus (mouse) (UniProt P97287); assay: Biacore competition, synthetic peptides
pro-survival proteins = assay: cell-based or functional assay

Chain of Bcl-2 (P10415 1-217): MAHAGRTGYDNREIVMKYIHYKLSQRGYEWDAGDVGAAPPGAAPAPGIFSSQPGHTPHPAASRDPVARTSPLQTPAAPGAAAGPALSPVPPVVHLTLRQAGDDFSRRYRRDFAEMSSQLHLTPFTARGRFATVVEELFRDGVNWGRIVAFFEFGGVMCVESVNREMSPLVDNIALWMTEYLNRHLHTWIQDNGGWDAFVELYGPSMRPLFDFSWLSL
Chain of mouse Mcl-1 with truncations of 151 amino acid residues at its N-terminus and 23 residues at its C-terminus (mouse) (P97287 152-308): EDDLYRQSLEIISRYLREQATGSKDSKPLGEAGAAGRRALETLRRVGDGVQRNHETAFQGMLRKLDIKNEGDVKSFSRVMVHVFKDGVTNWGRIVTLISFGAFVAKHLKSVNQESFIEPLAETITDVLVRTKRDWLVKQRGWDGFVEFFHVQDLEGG
Chain of Bcl-w (Q92843 1-164): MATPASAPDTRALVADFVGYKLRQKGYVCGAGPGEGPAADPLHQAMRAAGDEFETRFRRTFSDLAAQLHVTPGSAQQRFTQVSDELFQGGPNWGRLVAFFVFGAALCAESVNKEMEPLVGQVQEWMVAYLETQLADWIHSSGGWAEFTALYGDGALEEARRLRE
Chain of Recombinant human Bcl-xL with a 25 amino acid truncation of its C-terminus (human) (Q07817 1-208): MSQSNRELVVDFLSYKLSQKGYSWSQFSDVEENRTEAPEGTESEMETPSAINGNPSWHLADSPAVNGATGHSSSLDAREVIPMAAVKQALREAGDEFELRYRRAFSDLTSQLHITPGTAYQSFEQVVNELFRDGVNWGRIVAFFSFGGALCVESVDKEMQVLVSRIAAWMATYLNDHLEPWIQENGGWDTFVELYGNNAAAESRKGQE

Row | Substance | Fold/wt [1] | IC50 [1] | Fold/wt [2] | IC50 [2] | also measured
1 | Bim BH3 A9E, phage-displayed (peptide) | 3 fold | 32 nM | – | – | –
2 | Bim BH3 A21E, phage-displayed (peptide) | 2 fold | 16 nM | 1 fold | 3 nM | –
3 | Bim BH3 A24E, phage-displayed (peptide) | 1 fold | 8 nM | 1 fold | 2 nM | –
4 | Bim BH3 D1A, phage-displayed (peptide) | 1 fold | 10 nM | 1 fold | 3 nM | –
5 | Bim BH3 D17A, phage-displayed (peptide) | 28 fold | 256 nM | – | – | fold effect on binding [1]: 15 fold
6 | Bim BH3 E5A, phage-displayed (peptide) | 1 fold | 10 nM | 1 fold | 3 nM | –
7 | Bim BH3 E11A, phage-displayed (peptide) | 1 fold | 10 nM | 1 fold | 4 nM | –
8 | Bim BH3 E18A, phage-displayed (peptide) | 9 fold | 80 nM | 3 fold | 8 nM | –
9 | Bim BH3 F19A, phage-displayed (peptide) | – | 16 nM | 24 fold | 69 nM | IC50 (Bcl-2 [3]): 11 nM; Fold/wt (Bcl-w [4]): 18 fold; IC50 (Bcl-w [4]): 364 nM; IC50 [5]: 60 nM; fold weaker than wild-type BimBH3 [5]: 20 fold
10 | Bim BH3 G16E, phage-displayed (peptide) | 3 fold | 27 nM | – | – | fold effect on binding [1]: 38 fold
11 | Bim BH3 I6A, phage-displayed (peptide) | 1 fold | 11 nM | 3 fold | 8 nM | –
12 | Bim BH3 I8A, phage-displayed (peptide) | 1 fold | 9 nM | 2 fold | 7 nM | Fold/wt (Bcl-2 [3]): 3 fold; IC50 (Bcl-2 [3]): 17 nM; Fold/wt (Bcl-w [4]): 4 fold; IC50 (Bcl-w [4]): 74 nM
13 | Bim BH3 I15A, phage-displayed (peptide) | 1 fold | 10 nM | 1 fold | 2 nM | Fold/wt (Bcl-2 [3]): 1 fold; IC50 (Bcl-2 [3]): 7 nM; Fold/wt (Bcl-w [4]): 1 fold; IC50 (Bcl-w [4]): 18 nM
14 | Bim BH3 L12A, phage-displayed (peptide) | 1 fold | 10 nM | 43 fold | 124 nM | Fold/wt (Bcl-w [4]): 24 fold; IC50 (Bcl-w [4]): 486 nM; IC50 [5]: 130 nM; fold weaker than wild-type BimBH3 [5]: 50 fold; fold decrease in affinity [6]: 50 to 80 fold
15 | Bim BH3 L12F, phage-displayed (peptide) | – | – | – | – | fold decrease in binding affinity [6]: 5 fold
16 | Bim BH3 L12V, phage-displayed (peptide) | – | – | – | – | fold decrease in affinity [6]: 50 to 80 fold
17 | Bim BH3 L12W, phage-displayed (peptide) | – | – | – | – | fold decrease in binding affinity [6]: 22 fold
18 | Bim BH3 M2A, phage-displayed (peptide) | 1 fold | 13 nM | 2 fold | 4 nM | –
19 | Bim BH3 N20A, phage-displayed (peptide) | 1 fold | 7 nM | 2 fold | 5 nM | –
20 | Bim BH3 P4A, phage-displayed (peptide) | 1 fold | 12 nM | 1 fold | 3 nM | –
21 | Bim BH3 Q10A, phage-displayed (peptide) | 1 fold | 10 nM | 1 fold | 4 nM | –
22 | Bim BH3 R3A, phage-displayed (peptide) | 1 fold | 9 nM | 1 fold | 3 nM | –

Row | Substance | Fold/wt [1] | IC50 [1] | Fold/wt [2] | IC50 [2] | also measured
23 | Bim BH3 R13A, phage-displayed (peptide) | 1 fold | 13 nM | 1 fold | 4 nM | –
24 | Bim BH3 R14A, phage-displayed (peptide) | 1 fold | 10 nM | 2 fold | 5 nM | –
25 | Bim BH3 R25A, phage-displayed (peptide) | 1 fold | 8 nM | 1 fold | 2 nM | –
26 | Bim BH3 R26A, phage-displayed (peptide) | 1 fold | 8 nM | 1 fold | 4 nM | –
27 | Bim BH3 W7A, phage-displayed (peptide) | 1 fold | 10 nM | 1 fold | 3 nM | –
28 | Bim BH3 Y22A, phage-displayed (peptide) | 1 fold | 12 nM | 1 fold | 4 nM | –
29 | Bim BH3 Y23A, phage-displayed (peptide) | 1 fold | 12 nM | 1 fold | 4 nM | –
30 | BimBH3 A9E synthetic peptide | – | – | – | – | Fold/wt BimBH3 (A1 [7]): 7 fold; Fold/wt BimBH3 (Bcl-2 [8]): 56 fold; Fold/wt BimBH3 (Bcl-w [9]): 34 fold; Fold/wt BimBH3 [10]: 68 fold; Fold/wt BimBH3 [11]: 2 fold
31 | BimBH3 D17A synthetic peptide | – | – | – | – | Fold/wt BimBH3 (A1 [7]): 1 fold; Fold/wt BimBH3 (Bcl-2 [8]): 4 fold; Fold/wt BimBH3 (Bcl-w [9]): 30 fold; Fold/wt BimBH3 [10]: 3 fold; Fold/wt BimBH3 [11]: 2 fold
32 | BimBH3 F19A synthetic peptide | – | – | – | – | Fold/wt BimBH3 (A1 [7]): 1 fold; Fold/wt BimBH3 (Bcl-2 [8]): 3 fold; Fold/wt BimBH3 (Bcl-w [9]): 8 fold; Fold/wt BimBH3 [11]: 1 fold; fold decrease in binding affinity (A1 [12]): < 3 fold; fold decrease in binding affinity (Bcl-2 [13]): < 3 fold; fold decrease in binding affinity (Bcl-w [14]): 8 fold; fold decrease in binding affinity [15]: < 3 fold; fold decrease in binding affinity [16]: < 3 fold
33 | BimBH3 G16E synthetic peptide | – | – | – | – | Fold/wt BimBH3 (A1 [7]): 260 fold; Fold/wt BimBH3 (Bcl-2 [8]): 306 fold; Fold/wt BimBH3 (Bcl-w [9]): > 256 fold; Fold/wt BimBH3 [10]: 83 fold; Fold/wt BimBH3 [11]: 18 fold
34 | BimBH3 I8A synthetic peptide | – | – | – | – | Fold/wt BimBH3 (A1 [7]): 1 fold; Fold/wt BimBH3 (Bcl-2 [8]): 3 fold; Fold/wt BimBH3 (Bcl-w [9]): 2 fold; Fold/wt BimBH3 [10]: 1 fold; Fold/wt BimBH3 [11]: 1 fold
35 | BimBH3 I15A synthetic peptide | – | – | – | – | Fold/wt BimBH3 (A1 [7]): 2 fold; Fold/wt BimBH3 (Bcl-2 [8]): 2 fold; Fold/wt BimBH3 (Bcl-w [9]): 1 fold; Fold/wt BimBH3 [10]: 1 fold; Fold/wt BimBH3 [11]: 2 fold
36 | BimBH3 L12A + F19A synthetic peptide | – | – | – | – | Fold/wt BimBH3 (A1 [7]): 120 fold; Fold/wt BimBH3 [10]: > 1560 fold; Fold/wt BimBH3 [11]: 1 fold
37 | BimBH3 L12A synthetic peptide | – | – | – | – | fold decrease in binding affinity (A1 [17]): 7 fold; fold decrease in binding affinity [18]: 2 fold; Fold/wt BimBH3 (A1 [7]): 17 fold; Fold/wt BimBH3 (Bcl-2 [8]): 43 fold; Fold/wt BimBH3 (Bcl-w [9]): 31 fold; Fold/wt BimBH3 [10]: 11 fold; Fold/wt BimBH3 [11]: 1 fold
38 | BimS A9E | – | – | – | – | % viability in wild-type MEFs (pro-survival proteins): 55%
39 | BimS F19A | – | – | – | – | % viability in wild-type MEFs (pro-survival proteins): 22%
40 | BimS G16E | – | – | – | – | % viability in wild-type MEFs (pro-survival proteins): 93%
41 | BimS L12A | – | – | – | – | % viability in wild-type MEFs (pro-survival proteins): 57%
42 | mNoxaA BH3 D26A, phage-displayed (peptide) | 2 fold | 62 nM | – | – | –
43 | wild-type full-length BimS | – | – | – | – | % viability in wild-type MEFs (pro-survival proteins): 19%
